The target of the test is T1, WT CcdB (Controller of Cell Death protein B) (Escherichia coli (F-plasmid), UniProt P62554).
T1 construct: also called CcdB-WT
The test is described as follows: thermal shift assay (Sypro orange). Conditions: both partners purified.

Regarding KAENQEGMAEVARFIEMNGSFADENRDW [CcdA peptide (45–72)], the binding result was “binds”.

For the origin of these results see paper PMC9491731 (PLoS Genetics, 2022).
